Experimental data reported in paper PMC3462262 (Molecular cell, 2012).

Molecular target: Ub subunit of the UbcH5c-O~Ub conjugate (UniProt P0CG48 1-76, C-terminus oxyester-linked to Ser85 of UbcH5c)
Assay: NMR titration

- binding result: binds
B1: UbcH5c subunit of the UbcH5c-O~Ub conjugate (Cys85Ser, S22R) (enzyme)
chain: not shown
modifications: active site Ser85 oxyester-linked to the Ub C-terminus
